{
  "source": "paper PMC4230323",
  "about": "(Biochemistry, 2014)",
  "key": {"[1]": {"type": "biochemical", "details": "read-out: Km(ATP); 100 μM SPS"}, "[2]": {"type": "biochemical", "details": "read-out: Km(SPS); Src peptide substrate"}},
  "note": "Like-named read-outs stand apart in the source and are kept apart here.",
  "data": [
    {"molecule": "Lyn^SH2eng: Lyn Q509E/Q510E/Q511I three-domain construct with enhanced SH2 engagement (protein, left off: His tag, N-terminal, kept) QGDIVVALYPYDGIHPDDLSFKKGEKMKVLEEHGEWWKAKSLLTKKEGFIPSNYVAKLNTLETEEWFFKDITRKDAERQLLAPGNSAGAFLIRESETLKGSFSLSVRDFDPVHGDVIKHYKIRSLDNGGYYISPRITFPCISDMIKHYQKQADGLCRRLEKACISPKPQKPWDKDAWEIPRESIKLVKRLGAGQFGEVWMGYYNNSTKVAVKTLKPGTMSVQAFLEEANLMKTLQHDKLVRLYAVVTREEPIYIITEYMAKGSLLDFLKSDEGGKVLLPKLIDFSAQIAEGMAYIERKNYIHRDLRAANVLVSESLMCKIADFGLARVIEDNEYTAREGAKFPIKWTAPEAINFGCFTIKSDVWSFGILLYEIVTYGKIPYPGRTNADVMTALSQGYRMPRVENCPDELYDIMKMCWKEKAEERPTFDYLQSVLDDFYTATEGQYEEIP", "values": [
      {"measurement": "Km", "setting": "[1]", "result": "54 ± 5", "unit": "µM"},
      {"measurement": "Km", "setting": "[2]", "result": "60 ± 10", "unit": "µM"}
    ]}
  ]
}
